B1: BSA_F3: recombinant fragment 3 of BSA, 200 aa, sequence in Table 1A (protein)
chain: MPQNLIKQNCDQFEKLGEYGFQNALIVRYTRKVPQVSTPTLVEVSRSLGKVGTRCCTKPESERMPCTEDYLSLWNRLCVLHEKTPVSEKVTKCCTESLVNRRPCFSALTPDETYVPKAFDEKLFTFHADICTLPDTEKQIKKQTALVELLKHKPKATEEQLKTVMENFVAFVDKCCAADDKEACFAVEGPKLVVSTQTALAHHHHHH
B2: beta-lactoglobulin variant A (protein)
chain: LIVTQTMKGLDIQKVAGTWYSLAMAASDISLLDAQSAPLRVYVEELKPTPEGDLEILLQKWENDECAQKKIIAEKTKIPAVFKIDALNENKVLVLDTDYKKYLLFCMENSAEPEQSLVCQCLVRTPEVDDEALEKFDKALKALPMHIRLSFNPTQLEEQCHI
notes: natural purified protein
B3: recombinant alphaS1-casein (protein)
chain: RPKHPIKHQGLPQEVLNENLLRFFVAPFPEVFGKEKVNELSKDIGSESTEDQAMEDIKQMEAESISSSEEIVPNSVEQKHIQKEDVPSERYLGYLEQLLRLKKYKVPQLEIVPNSAEERLHSMKEGIHAQQKEPMIGVNQELAYFYPELFRQFYQLDAYPSGAWYYVPLGTQYTDAPSFSDIPNPIGSENSEKTTMPLW
notes: expressed in E. coli
B4: BSA_F1: recombinant fragment 1 of BSA, 190 aa, sequence in Table 1A (protein)
chain: MRGVFRRDTHKSEIAHRFKDLGEEHFKGLVLIAFSQYLQQCPFDEHVKLVNELTEFAKTCVADESHAGCEKSLHTLFGDELCKVASLRETYGDMADCCEKQEPERNECFLSHKDDSPDLPKLKPDPNTLCDEFKADEKKFWGKYLYEIARRHPYFYAPELLYYANKYNGVFQECCQAEDKGACLLPKIETMREKVLTSSHHHHHH
B5: lactoferrin (protein, UniProt P24627 20-708, looked up)
Lactotransferrin: APRKNVRWCTISQPEWFKCRRWQWRMKKLGAPSITCVRRAFALECIRAIAEKKADAVTLDGGMVFEAGRDPYKLRPVAAEIYGTKESPQTHYYAVAVVKKGSNFQLDQLQGRKSCHTGLGRSAGWIIPMGILRPYLSWTESLEPLQGAVAKFFSASCVPCIDRQAYPNLCQLCKGEGENQCACSSREPYFGYSGAFKCLQDGAGDVAFVKETTVFENLPEKADRDQYELLCLNNSRAPVDAFKECHLAQVPSHAVVARSVDGKEDLIWKLLSKAQEKFGKNKSRSFQLFGSPPGQRDLLFKDSALGFLRIPSKVDSALYLGSRYLTTLKNLRETAEEVKARYTRVVWCAVGPEEQKKCQQWSQQSGQNVTCATASTTDDCIVLVLKGEADALNLDGGYIYTAGKCGLVPVLAENRKSSKHSSLDCVLRPTEGYLAVAVVKKANEGLTWNSLKDKKSCHTAVDRTAGWNIPMGLIVNQTGSCAFDEFFSQSCAPGADPKSRLCALCAGDDQGLDKCVPNSKEKYYGYTGAFRCLAEDVGDVAFVKNDTVWENTNGESTADWAKNLNREDFRLLCLDGTRKPVTEAQSCHLAVAPNHAVVSRSDRAAHVKQVLLHQQALFGKNGKNCPDKFCLFKSETKNLLFNDNTECLAKLGGRPTYEEYLGTEYVTAIANLKKCSTSPLLEACAFLTR
notes: natural purified protein
B6: human alpha-lactalbumin (protein)
chain: KQFTKCELSQLLKDIDGYGGIALPELICTMFHTSGYDTQAIVENNESTEYGLFQISNKLWCKSSQVPQSRNICDISCDKFLDDDITDDIMCAKKILDIKGIDYWLAHKALCTEKLEQWLCEKL
notes: natural purified protein
B7: recombinant aS2-casein (protein)
chain: KNTMEHVSSSEESIISQETYKQEKNMAINPSKENLCSTFCKEVVRNANEEEYSIGSSSEESAEVATEEVKITVDDKHYQKALNEINQFYQKFPQYLQYLYQGPIVLNPWDQVKRNAVPITPTLNREQLSTSEENSKKTVDMESTEVFTKKTKLTEEEKNRLNFLKKISQRYQKFALPQYLKTVYQHQKAMKPWIQPKTKVIPYVRYL
notes: expressed in E. coli
B8: BSA_F2: recombinant fragment 2 of BSA, 189 aa, sequence in Table 1A (protein)
chain: MARQRLRCASIQKFGERALKAWSVARLSQKEPKAEFVEVTKLVTDLTKVHKECCHGDLLECADDRADLAKYICDNQDTISSKLKECCDKPLLEKSHCIAEVEKDAIPENLPPLTADFAEDKDVCKNYQEAKDAFLGSFLYEYSRRHPEYAVSVLLRLAKEYEATLEECCAKDDPHACYSTVFDKLKHLVDEHHHHHH
B9: beta-casein (protein, UniProt P02666 16-224, looked up)
Beta-casein: RELEELNVPGEIVESLSSSEESITRINKKIEKFQSEEQQQTEDELQDKIHPFAQTQSLVYPFPGPIPNSLPQNIPPLTQTPVVVPPFLQPEVMGVSKVKEAMAPKHKEMPFPKYPVEPFTESQSLTLTDVENLHLPLPLLQSWMHQPHQPLPPTVMFPPQSVLSLSQSKVLPVPQKAVPYPQRDMPIQAFLLYQEPVLGPVRGPFPIIV
notes: natural purified protein
B10: recombinant beta-casein (protein)
chain: B9 Beta-casein
notes: expressed in E. coli

What follows are molecules tested on Humanized Rat Basophil Leukaemia (RBL) cells (clone RBL-703/21) (assay: human RBL assay: β-hexosaminidase release of humanized RBL cells loaded with patients' serum IgE). Conditions: percentage of 78 patients' sera triggering β-hexosaminidase release; milk components 0.3 μg/ml.
Assay type: cell-based
Text: A scientifically approved model to test biological reactivity of molecules is induction of histamine release from human basophil granulocytes (Purohit 2005). For this purpose a rat basophil leukaemia cell line expressing the α-chain of the human FcεRI receptor (Hoffmann et al., Int Arch Allergy Immunol, Vol 126(4), p. 277-285) was used. Different milk components (n=33) including whole milk extracts from different species, milk fractions, purified natural and recombinant cow's milk proteins, and recombinant protein fragments were tested. The percentages of 78 patients whose serum IgE antibodies trigger β-hexosaminidase release of the humanized RBL cells in response to the individual milk components were determined (FIG. 3).
(§1) Sera from 78 patients who were selected according to a positive case history, positive skin-prick reactions and determination of specific IgE to cow's milk extract using the CAP-FEIA System (Phadia, Uppsala, Sweden) were used. Sera were obtained from five adults and 73 children (30 female and 43 male) from Austria, Germany, Italy, Spain and France.
Humanized Rat Basophil Leukaemia (RBL) cells (clone RBL-703/21) were incubated in microtiter plates overnight at 37° C. (7% CO2, 95% humidity) with 50 μl human sera, diluted 1:10. Afterwards cells were washed and exposed to milk components, diluted to 0.3 μg/ml protein in Tyrodes buffer containing 50% D2O and 0.1% BSA/HAS for 1 hour at 37° C. (7% CO2, 95% humidity). Spontaneous release of the cells was also evaluated. Finally, the cell supernatants were incubated with 50 μl assay solution (0.1 M citric acid or sodium citrate, pH 4.5, 160 μM 4-methyl umbelliferyl-N-acetyl-β-D-glucosaminide) in new microtiter plates at 37° C. (7% CO2, 95% humidity) for 1 h. The reactions were stopped by addition of 100 μl glycine buffer per well and the fluorescence measured at λex: 360 and λem: 465 using a fluorescence microplate reader. The specific hexosaminidase release of each sample was calculated using the formula: [(FlS−FlSp):(FlZ−FlSp)]×100 (where […] is the fluorescence of the sample; FlSp is the fluorescence of the spontaneous release and FlZ is the fluorescence of the total release).

Molecule	biological activity (% of patients)
B1	8.5 % of patients
B2	28.2 % of patients
B3	19.2 % of patients
B4	4.3 % of patients
B5	2.6 % of patients
B6	6.4 % of patients
B7	5.1 % of patients
B8	4.3 % of patients
B9	34.6 % of patients
B10	10.3 % of patients

What follows are molecules tested on serum IgE of cow's milk allergic patients (assay: IgE binding capacity (IgE reactivity) of milk components with patients' sera). Conditions: sera of cow's milk allergic patients (n=78).
Parameters: species or system human
Text: as §1

Molecule	IgE binding (% of patients)
B1	8.5 % of patients
B2	50.0 % of patients
B3	48.7 % of patients
B4	2.1 % of patients
B5	5.1 % of patients
B6	30.8 % of patients
B7	9.0 % of patients
B8	8.5 % of patients
B9	44.9 % of patients
B10	55.1 % of patients

From patent US20100143262A1, “Method for Identifying Allergenic Proteins And Peptides” (priority 2008, published 2010)
